Legend:
[1] = target: LacI-CFP-FOXO1 fusion protein with the C793S mutant FOXO1 domain; assay: LacO array recruitment assay; U2OS cells with 50,000 Lac operon repeats on chromosome 1, transfected with CFP-LacI-FOXO1 fusion baits; endogenous p300 detected at the CFP dot by immunofluorescence after 48 h; dots counted for presence or absence of p300
[2] = target: LacI-CFP-FOXO1 fusion protein with the small C-terminal AD deleted; assay: as above
[3] = target: CLP1; assay: BioID (proximity biotinylation, streptavidin isolation, mass spectrometry); conditions: HEK293T cells, transient transfection, biotin, 24 h; n = 3; read off a plot
[4] = target: DNTTIP2; assay: as above; conditions: HEK293T cells, transient transfection, biotin, 24 h; n = 3; read off a plot
[5] = target: MED6 (UniProt O75586); assay: as above; conditions: HEK293T cells, transient transfection, biotin, 24 h; n = 3; read off a plot
[6] = target: TAF9 (UniProt Q16594); assay: as above; conditions: HEK293T cells, transient transfection, biotin, 24 h; n = 3; read off a plot
[7] = target: TCF4; assay: as above; conditions: HEK293T cells, transient transfection, biotin, 24 h; n = 3; read off a plot
[8] = target: YY1; assay: as above; conditions: HEK293T cells, transient transfection, biotin, 24 h; n = 3; read off a plot
[9] = target: p300 (UniProt Q09472); assay: as above; conditions: HEK293T cells, transient transfection, biotin, 24 h; n = 3; read off a plot
Chain of UniProt Q09472 (Q09472 whole entry): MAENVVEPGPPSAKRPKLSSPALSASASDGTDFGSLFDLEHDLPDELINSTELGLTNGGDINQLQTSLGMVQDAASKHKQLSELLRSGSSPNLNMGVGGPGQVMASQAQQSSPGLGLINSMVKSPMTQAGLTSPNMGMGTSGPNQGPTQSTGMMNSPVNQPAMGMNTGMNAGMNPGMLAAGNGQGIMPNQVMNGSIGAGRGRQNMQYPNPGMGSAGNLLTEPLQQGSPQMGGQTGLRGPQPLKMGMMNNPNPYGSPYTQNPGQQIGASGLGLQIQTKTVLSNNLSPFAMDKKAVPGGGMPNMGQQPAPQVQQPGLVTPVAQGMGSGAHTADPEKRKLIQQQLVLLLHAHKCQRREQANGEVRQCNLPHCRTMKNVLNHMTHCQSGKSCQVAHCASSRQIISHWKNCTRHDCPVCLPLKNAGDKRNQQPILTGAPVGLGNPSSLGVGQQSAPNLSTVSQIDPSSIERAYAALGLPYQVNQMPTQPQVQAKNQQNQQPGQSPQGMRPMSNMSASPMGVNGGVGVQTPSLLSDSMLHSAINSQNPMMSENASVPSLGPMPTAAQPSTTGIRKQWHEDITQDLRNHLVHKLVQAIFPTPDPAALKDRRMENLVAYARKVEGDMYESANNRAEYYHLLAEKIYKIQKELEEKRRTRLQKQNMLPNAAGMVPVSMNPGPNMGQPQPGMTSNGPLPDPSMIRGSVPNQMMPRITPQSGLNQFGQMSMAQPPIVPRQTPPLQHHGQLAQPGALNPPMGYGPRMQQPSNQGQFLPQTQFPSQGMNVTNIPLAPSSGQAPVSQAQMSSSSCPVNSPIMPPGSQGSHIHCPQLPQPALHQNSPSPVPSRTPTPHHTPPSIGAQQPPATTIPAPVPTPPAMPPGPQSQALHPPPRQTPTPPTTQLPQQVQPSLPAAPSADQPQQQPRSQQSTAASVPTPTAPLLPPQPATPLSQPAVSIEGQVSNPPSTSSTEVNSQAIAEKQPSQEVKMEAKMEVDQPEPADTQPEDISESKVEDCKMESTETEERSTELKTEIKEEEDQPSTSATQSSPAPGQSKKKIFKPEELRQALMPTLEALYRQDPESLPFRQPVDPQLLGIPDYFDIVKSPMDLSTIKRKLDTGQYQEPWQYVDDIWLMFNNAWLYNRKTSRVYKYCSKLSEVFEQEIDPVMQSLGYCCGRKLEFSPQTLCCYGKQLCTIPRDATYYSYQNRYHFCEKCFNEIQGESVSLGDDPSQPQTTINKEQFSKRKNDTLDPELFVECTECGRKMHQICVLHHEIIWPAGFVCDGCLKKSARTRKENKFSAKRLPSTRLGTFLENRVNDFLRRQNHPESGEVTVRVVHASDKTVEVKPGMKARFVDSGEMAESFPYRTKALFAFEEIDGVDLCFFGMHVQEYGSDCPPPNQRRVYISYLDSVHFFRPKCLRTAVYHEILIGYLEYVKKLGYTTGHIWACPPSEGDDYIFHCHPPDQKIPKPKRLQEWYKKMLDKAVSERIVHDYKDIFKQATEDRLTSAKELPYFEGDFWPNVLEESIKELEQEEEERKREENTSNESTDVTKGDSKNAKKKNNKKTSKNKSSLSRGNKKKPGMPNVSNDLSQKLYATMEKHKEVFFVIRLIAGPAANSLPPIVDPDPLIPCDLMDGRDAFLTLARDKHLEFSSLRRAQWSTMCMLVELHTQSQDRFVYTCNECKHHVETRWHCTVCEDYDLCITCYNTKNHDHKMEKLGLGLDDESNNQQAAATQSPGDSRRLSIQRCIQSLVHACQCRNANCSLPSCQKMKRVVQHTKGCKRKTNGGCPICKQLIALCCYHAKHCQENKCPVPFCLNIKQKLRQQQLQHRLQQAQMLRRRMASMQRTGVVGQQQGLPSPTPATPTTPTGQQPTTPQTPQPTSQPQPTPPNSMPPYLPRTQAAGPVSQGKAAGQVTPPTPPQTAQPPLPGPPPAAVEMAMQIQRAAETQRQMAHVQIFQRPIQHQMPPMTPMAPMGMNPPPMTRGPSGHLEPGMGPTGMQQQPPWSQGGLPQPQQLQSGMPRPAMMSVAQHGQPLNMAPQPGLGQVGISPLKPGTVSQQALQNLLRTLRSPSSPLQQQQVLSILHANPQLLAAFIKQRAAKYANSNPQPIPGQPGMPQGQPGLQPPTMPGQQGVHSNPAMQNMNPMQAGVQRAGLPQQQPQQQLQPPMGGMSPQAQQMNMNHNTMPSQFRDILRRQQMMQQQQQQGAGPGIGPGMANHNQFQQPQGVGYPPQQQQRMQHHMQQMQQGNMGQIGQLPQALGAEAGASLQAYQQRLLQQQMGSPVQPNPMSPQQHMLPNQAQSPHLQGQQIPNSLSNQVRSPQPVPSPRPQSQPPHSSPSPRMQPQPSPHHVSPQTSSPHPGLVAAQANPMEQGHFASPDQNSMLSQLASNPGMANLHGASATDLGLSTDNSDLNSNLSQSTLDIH

Chain of UniProt O75586 (O75586 whole entry): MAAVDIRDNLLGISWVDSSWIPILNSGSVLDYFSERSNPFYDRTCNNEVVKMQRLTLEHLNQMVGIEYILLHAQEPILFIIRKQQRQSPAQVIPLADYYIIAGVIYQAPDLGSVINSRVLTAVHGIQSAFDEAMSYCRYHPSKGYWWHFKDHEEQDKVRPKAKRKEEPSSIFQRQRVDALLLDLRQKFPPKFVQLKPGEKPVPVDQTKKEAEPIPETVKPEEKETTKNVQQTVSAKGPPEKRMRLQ
Chain of UniProt Q16594 (Q16594 whole entry): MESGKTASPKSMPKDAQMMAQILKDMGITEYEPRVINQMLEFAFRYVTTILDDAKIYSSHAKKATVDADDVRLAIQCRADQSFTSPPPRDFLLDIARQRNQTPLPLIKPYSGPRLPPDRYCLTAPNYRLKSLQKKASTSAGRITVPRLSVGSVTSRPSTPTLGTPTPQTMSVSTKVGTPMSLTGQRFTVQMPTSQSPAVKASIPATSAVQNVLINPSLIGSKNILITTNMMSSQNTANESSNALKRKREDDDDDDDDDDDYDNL

Row | Substance | loss of p300 recruitment against the wt FOXO1 [1] | reduction of p300 recruitment against the FOXO1 part of P3F [2] | other: Log2 (fold change) of total spectral counts [3] | other: Log2 (fold change) of total spectral counts [4] | other: Log2 (fold change) of total spectral counts [5] | other: Log2 (fold change) of total spectral counts [6] | other: Log2 (fold change) of total spectral counts [7] | other: Log2 (fold change) of total spectral counts [8] | other: Log2 (fold change) of total spectral counts [9]
1 | p300 (endogenous in U2OS cells) (from UniProt Q09472 1-2414) (natural protein) | 30 percent | 90 percent | – | – | – | – | – | – | –
2 | BirA-Flag/PAX3-FOXO1 fusion construct (wildtype P3F) C793S | – | – | 2.2 | 2.5 | 1.2 | 3.8 | 1.4 | 2.4 | 0.7

Source: publication PMC10724205
